As a reminder, the IC50 is the point on the concentration scale where inhibition reaches its midpoint. Higher therefore signals weaker potency.

Experimental findings from patent US20200024330A1 are described below.

Holding throughout (assay): cell-based or functional assay
Assay [1] concerns the target HIV-1 Env of isolate MGRM-G-025 (clade G pseudovirus) (HIV-1).
Assay [2] has as its target HIV-1 Env of isolate 92UG046 (clade D) (HIV-1).
For assay [3], the target named is HIV-1 93IN905 Env (HIV-1).
The target of assay [4] is HIV-1 Env of isolate MGRM-D-013 (clade D) (HIV-1).
In assay [5] the target is HIV-1 MGRM-A-012 envelope glycoprotein (Env) (HIV-1).
The target in assay [6] is HIV-1 MGRM-C-012 Env (HIV-1).
In assay [7] the target is HIV-1 Env of pseudovirus PVO.4 (Acute), clade B (HIV-1).
Assay [8] addresses HIV-1 Env of isolate MGRM-G-019 (clade G pseudovirus) (HIV-1).
Assay [9] addresses HIV-1 92RW026 envelope glycoprotein (Env) (HIV-1).
The target of assay [10] is HIV-1 Env of isolate MGRM-G-015 (clade G pseudovirus) (HIV-1).
Assay [11] addresses HIV-1 Env of isolate CMU02 (HIV-1).
Assay [12] concerns the target HIV-1 Env of isolate MGRM-AE-003 (HIV-1).
For assay [13], the target named is HIV-1 LAVI_C3 Env (HIV-1).
Assay [14] has as its target HIV-1 MGRM-F1-008 Env (pseudovirus) (HIV-1).
Assay [15] concerns the target HIV-1 NL43 envelope protein (Env) on pseudovirus (HIV-1).
Assay [16] concerns the target HIV-1 MGRM-A-009 envelope glycoprotein (Env) (HIV-1).
Assay [17] addresses HIV-1 Env of isolate MGRM-G-017 (clade G pseudovirus) (HIV-1).
Assay [18] addresses HIV-1 Env of isolate MGRM-D-002 (HIV-1).
In assay [19] the target is HIV-1 Env of isolate MGRM-D-005 (HIV-1).
In assay [20] the target is HIV-1 MGRM-C-027 envelope glycoprotein (Env) on pseudovirus (HIV-1).
Assay [21] addresses HIV-1 Env of isolate 92RW008 (HIV-1).
For assay [22], the target named is HIV-1 Env of isolate MGRM-D-012 (HIV-1).
Assay [23] deals with HIV-1 Env of isolate MGRM-G-011 (subtype G) (HIV-1).
In assay [24] the target is HIV-1 Env of isolate 98CN006 (HIV-1).
Assay [25] addresses HIV-1 Env of isolate 92UG005 (HIV-1).
In assay [26] the target is HIV-1 Env of isolate CAAN.A2 (HIV-1).
Assay [27] deals with HIV-1 Env of isolate MGRM-Chronic-B-002 (HIV-1).

1443_C16 (PG16) (TCN-116) (antibody), sequence (VH): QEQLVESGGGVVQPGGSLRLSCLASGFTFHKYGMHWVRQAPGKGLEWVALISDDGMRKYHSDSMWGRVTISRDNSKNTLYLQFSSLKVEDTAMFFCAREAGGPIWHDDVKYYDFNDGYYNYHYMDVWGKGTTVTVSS
1443_C16 (PG16) (TCN-116) (antibody), sequence (VL): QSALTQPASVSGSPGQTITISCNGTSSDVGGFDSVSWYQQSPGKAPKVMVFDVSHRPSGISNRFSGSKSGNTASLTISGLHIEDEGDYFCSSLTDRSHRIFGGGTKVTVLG
PGT-143 (4980_N08) (antibody), sequence (VH): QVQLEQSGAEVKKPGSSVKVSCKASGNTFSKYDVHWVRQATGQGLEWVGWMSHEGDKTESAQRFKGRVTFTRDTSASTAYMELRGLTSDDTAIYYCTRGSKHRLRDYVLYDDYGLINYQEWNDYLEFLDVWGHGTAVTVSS
PGT-143 (4980_N08) (antibody), sequence (VL): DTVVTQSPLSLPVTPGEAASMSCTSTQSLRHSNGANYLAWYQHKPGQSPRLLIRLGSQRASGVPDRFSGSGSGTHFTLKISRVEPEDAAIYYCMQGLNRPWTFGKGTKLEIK
PGT-142 (4995_E20) (antibody), sequence (VH): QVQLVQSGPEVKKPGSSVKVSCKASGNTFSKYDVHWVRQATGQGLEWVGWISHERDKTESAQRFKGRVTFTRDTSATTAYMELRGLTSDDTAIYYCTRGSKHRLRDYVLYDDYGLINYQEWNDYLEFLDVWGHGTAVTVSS
PGT-142 (4995_E20) (antibody), sequence (VL): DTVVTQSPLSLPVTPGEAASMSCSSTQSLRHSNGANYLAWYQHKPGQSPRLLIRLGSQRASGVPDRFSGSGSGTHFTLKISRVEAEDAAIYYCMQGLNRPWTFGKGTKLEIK
PGT-141 (4964_G22; 4993_K13) (antibody), sequence (VH): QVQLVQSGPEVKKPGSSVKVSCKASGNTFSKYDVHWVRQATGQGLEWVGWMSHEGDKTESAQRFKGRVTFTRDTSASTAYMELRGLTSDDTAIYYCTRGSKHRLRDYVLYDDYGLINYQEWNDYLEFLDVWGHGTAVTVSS
PGT-144 (4970_K22) (antibody), sequence (VH): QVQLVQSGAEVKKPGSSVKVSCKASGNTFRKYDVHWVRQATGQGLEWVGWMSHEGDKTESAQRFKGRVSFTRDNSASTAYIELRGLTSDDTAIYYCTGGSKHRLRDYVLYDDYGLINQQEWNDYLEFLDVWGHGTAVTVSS
PGT-144 (4970_K22) (antibody), sequence (VL): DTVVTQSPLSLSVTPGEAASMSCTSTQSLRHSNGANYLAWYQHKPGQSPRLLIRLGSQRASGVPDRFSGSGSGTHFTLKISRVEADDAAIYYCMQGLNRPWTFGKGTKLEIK

As for 2F5 (antibody), the IC50 (µg/ml), pseudovirus neutralization in [1] is greater than 50 µg/mL; in [2], greater than 50 µg/mL; in [4], 2.12 µg/mL; in assay [5], 2.36 µg/mL; in assay [7], greater than 50 µg/mL; in assay [8], greater than 50 µg/mL. Also, the IC50 (µg/ml), pseudovirus neutralization in assay [9] was found to be 8.63 µg/mL; in assay [10], 0.43 µg/mL; in [11], 0.6 µg/mL; in [12] it was 0.24 µg/mL; in assay [14], 1.61 µg/mL; in assay [16] it was 9.4 µg/mL. The IC50 (µg/ml), pseudovirus neutralization in [17] was 0.6 µg/mL. Further, the IC50 in assay [3], in assay [6] and in [13] was greater than 50 µg/mL each time. In assay [15], this substance gave a neutralization IC50 of 2.41 µg/mL.

2G12 (antibody): the IC50 (µg/ml), pseudovirus neutralization is 31.9 µg/mL in assay [1]; greater than 50 µg/mL in assay [2]; greater than 50 µg/mL in [4]; greater than 50 µg/mL in assay [5]; 0.8 µg/mL in assay [7]; 31 µg/mL in assay [8]. The IC50 (µg/ml), pseudovirus neutralization in assay [9] was 17.2 µg/mL; in assay [10], greater than 50 µg/mL; in assay [11], greater than 50 µg/mL; in assay [12], greater than 50 µg/mL; in assay [14], greater than 50 µg/mL; in [16] it was 7.47 µg/mL. This substance gave an IC50 (µg/ml), pseudovirus neutralization in assay [17] greater than 50 µg/mL. For the same substance, the IC50 in assay [3], in assay [6] and in assay [13] was greater than 50 µg/mL in each case. Further, the neutralization IC50 in assay [15] turned out to be 0.75 µg/mL.

Regarding 4E10 (antibody), the IC50 (µg/ml), pseudovirus neutralization came to 1.7 µg/mL in assay [1]; 12.2 µg/mL in assay [2]; 5.38 µg/mL in [4]; 4.27 µg/mL in assay [5]; 18.3 µg/mL in [7]; 6.53 µg/mL in assay [8]. Besides, the IC50 (µg/ml), pseudovirus neutralization is 12.9 µg/mL in assay [9]; 1.07 µg/mL in [10]; 0.72 µg/mL in assay [11]; 0.34 µg/mL in [12]; 2.75 µg/mL in assay [14]; 12 µg/mL in assay [16]. Moreover, the IC50 (µg/ml), pseudovirus neutralization in [17] worked out at 1.14 µg/mL. The IC50 was determined as 1.26 µg/mL in assay [3], 0.44 µg/mL in assay [6] and 2.85 µg/mL in assay [13]. This substance returned a neutralization IC50 in [15] of 4.95 µg/mL.

1443_C16 (PG16) (TCN-116) (antibody): the IC50 (µg/ml), pseudovirus neutralization in [1] is greater than 50 µg/mL; in [2], 1.42 µg/mL; in assay [4], 0.11 µg/mL; in [5], 20.7 µg/mL; in assay [7], 5.43 µg/mL; in assay [8], 1.21 µg/mL. Moreover, the IC50 (µg/ml), pseudovirus neutralization is 0.03 µg/mL in assay [9]; 5.33 µg/mL in assay [10]; 43.6 µg/mL in assay [11]; 0.03 µg/mL in assay [12]; greater than 50 µg/mL in assay [14]; 0.01 µg/mL in assay [16]. This substance yielded an IC50 (µg/ml), pseudovirus neutralization in [17] of 0.02 µg/mL. Moreover, the IC50 in assay [3] is 0.25 µg/mL; in assay [6], 0.48 µg/mL; in [13], 9.55 µg/mL. Further, in assay [15], the neutralization IC50 was less than 0.0025 µg/mL.

In the case of 1495_C14 (PGC14) (antibody), the IC50 (µg/ml), pseudovirus neutralization in assay [1], in assay [2], in [4], in assay [5], in [7] and in assay [8] was greater than 50 µg/mL each time. For the same substance, the IC50 (µg/ml), pseudovirus neutralization in [9], in [10], in [11], in assay [12], in assay [14] and in assay [16] was greater than 50 µg/mL throughout. In [17], this substance had an IC50 (µg/ml), pseudovirus neutralization greater than 50 µg/mL. For the same substance, the IC50 in [3] was 19 µg/mL; in assay [6], greater than 50 µg/mL; in [13], 12 µg/mL. The substance also yielded a neutralization IC50 in assay [15] of 0.373 µg/mL.

Turning to 1496_C09 (PG9) (TCN-109) (antibody), the IC50 (µg/ml), pseudovirus neutralization in assay [2] was 0.64 µg/mL; in assay [4] it was 0.06 µg/mL; in assay [5], 11.2 µg/mL; in assay [7], 4.01 µg/mL; in assay [8], 0.67 µg/mL; in assay [9], 0.27 µg/mL. Besides, the IC50 (µg/ml), pseudovirus neutralization in assay [10] was 1.51 µg/mL; in assay [11], 7.69 µg/mL; in assay [16], 0.03 µg/mL; in assay [17] it was 0.03 µg/mL. The IC50 (µg/mL), pseudovirus neutralization in assay [18] came out at 0.021 µg/mL; in [19], 1.8 µg/mL; in assay [12], 0.044 µg/mL; in [22], 16.2 µg/mL. Further, the half-inhibitory concentration (IC50) in assay [3] is 0.03 µg/mL; in assay [6] it was 0.24 µg/mL; in assay [21] it was 0.006 µg/mL; in assay [13], 1.45 µg/mL. For the same substance, the IC50 (ug/ml), neutralizing activity in [20] worked out at 2.45 µg/mL. In [20], this substance gave an IC50 neutralization of 2.45 µg/mL. Further, the neutralization IC50 in assay [23] was 0.335 µg/mL.

PGT-121 (antibody): the IC50 (µg/mL), pseudovirus neutralization is greater than 50 µg/mL in [11], 0.003 µg/mL in assay [21] and greater than 50 µg/mL in assay [12].

For PGT-122 (antibody), the IC50 (µg/mL), pseudovirus neutralization in [11] is greater than 50 µg/mL; in assay [21] it was 0.003 µg/mL; in [12], greater than 50 µg/mL.

In the case of PGT-141 (4964_G22; 4993_K13) (antibody), the neutralization IC50 in [23] was 0.086 µg/mL.

In turn, PGT-142 (4995_E20) (antibody) had a neutralization IC50 in assay [23] of 0.046 µg/mL.

The substance PGT-143 (4980_N08) (antibody) showed a neutralization IC50 in [23] of 0.074 µg/mL.

In turn, PGT-144 (4970_K22) (antibody) showed a neutralization IC50 in assay [23] of 1.58 µg/mL.

On to PGV04 (antibody), for which the IC50 (µg/mL), pseudovirus neutralization is 0.322 µg/mL in assay [18]; greater than 50 µg/mL in assay [19]; 0.44 µg/mL in assay [25]; 1.24 µg/mL in assay [11]; 6.4 µg/mL in assay [12]; 0.125 µg/mL in assay [22]. In addition, in [24], the IC50, pseudovirus neutralization is 1.32 µg/mL. In addition, in assay [21], the IC50 was 0.014 µg/mL. Also, the neutralization IC50 in [23] worked out at 0.78 µg/mL.

As for VRC01 (antibody), the half-maximal inhibitory concentration (IC50) was 0.722 µg/mL in assay [26] and 0.117 µg/mL in [27]. Besides, in [22], the IC50, pseudovirus neutralization stood at 0.216 µg/mL. Besides, the neutralization IC50 in [23] turned out to be 0.065 µg/mL.

Turning to b12 (antibody), the IC50 (µg/ml), pseudovirus neutralization was greater than 50 µg/mL in assay [1]; 0.07 µg/mL in [2]; greater than 50 µg/mL in assay [4]; greater than 50 µg/mL in [5]; greater than 50 µg/mL in assay [7]; 3.77 µg/mL in [8]. For the same substance, the IC50 (µg/ml), pseudovirus neutralization in assay [9] is greater than 50 µg/mL; in assay [10], greater than 50 µg/mL; in assay [11] it was 29.3 µg/mL; in assay [12], greater than 50 µg/mL; in assay [14], greater than 50 µg/mL; in [16] it was 4.34 µg/mL. The same substance showed an IC50 (µg/ml), pseudovirus neutralization in assay [17] greater than 50 µg/mL. In addition, the 50% inhibitory concentration (IC50) in assay [3] is 21.4 µg/mL; in [6], greater than 50 µg/mL; in assay [13], 0.94 µg/mL. Besides, in [15], the neutralization IC50 came to 0.06 µg/mL.
